From US20100189695A1, “IRAK-1 AS REGULATOR OF DISEASES AND DISORDERS” (priority 2008, published 2010)

What was measured:
NFAT [1] = test: NFAT responsive element luciferase reporter assay in transfected Hela cells; format: cell-based, human; settings: for suppression of NFAT reporter activity: co-transfection of expression plasmid with NFAT reporter
Source text: NFAT family transcription factors play critical roles in the pathogenesis of cardiovascular diseases, including hypertension and atherosclerosis. […] First, human Hela cells were trasfected with either empty vector plasmid or wild type IRAK-1 expression plasmid together with a NFAT responsive element-containing luciferase reporter plasmid. […] Subsequently, plasmids that express mutated IRAK-1 molecules (D340N, C203S, T113I, mutations which are present in human patients with cardiovascular diseases) have been generated.
Further experiments were performed to ask whether the C-terminal domain of IRAK-1 is involved in facilitating its suppressive regulatory function toward NFAT activity. […] Statistical significance was calculated using a t-Test for two-samples assuming unequal variances and p-values are as indicated.
In order to determine the mechanism for IRAK-1 involvement, transcription factor reporter assays were performed. In this set of experiments, NFAT reporter activity was determined in the presence of IRAK-1 or IRAK-M, a homologue of IRAK-1 (FIG. 10).

NFAT [2] = test: Co-immunoprecipitation of Flag-IRAK-1 constructs with NFAT in transfected Hela cells; format: binding, human; settings: anti-Flag IP, anti-NFAT Western blot
Procedure: To further delineate which part of IRAK-1 is involved in its interaction with NFAT, experiments were performed using full-length IRAK-1 and a C-terminally truncated form (IRAK-1ΔC—see FIG. 1). Specifically, Hela cells were transfected with IRAK-1 encoding plasmids that express either the full length wild type human IRAK-1 protein or a truncated version of IRAK-1 with deletion of the C terminal region (amino acids 548 to 712 are deleted). Equal amount of cell lysates were harvested from the transfected cells and used to perform co-immunoprecipitation assays with an anti-Flag antibody. Immunoprecipitated proteins were resolved by electrophoresis, and the co-immunoprecipitated proteins were subjected to Western blot analyses using an anti-NFAT antibody.

B1: IRAK-M: a homologue of IRAK-1 (protein)
chain: MAGNCGARGALSAHTLLFDLPPALLGELCAVLDSCDGALGWRGLAERLSSSWLDVRHIEKYVDQGKSGTRELLWSWAQKNKTIGDLLQVLQEMGHRRAIHLITNYGAVLSPSEKSYQEGGFPNILFKETANVTVDNVLIPEHNEKGILLKSSISFQNIIEGTRNFHKDFLIGEGEIFEVYRVEIQNLTYAVKLFKQEKKMQCKKHWKRFLSELEVLLLFHHPNILELAAYFTETEKFCLIYPYMRNGTLFDRLQCVGDTAPLPWHIRIGILIGISKAIHYLHNVQPCSVICGSISSANILLDDQFQPKLTDFAMAHFRSHLEHQSCTINMTSSSSKHLWYMPEEYIRQGKLSIKTDVYSFGIVIMEVLTGCRVVLDDPKHIQLRDLLRELMEKRGLDSCLSFLDKKVPPCPRNFSAKLFCLAGRCAATRAKLRPSMDEVLNTLESTQASLYFAEDPPTSLKSFRCPSPLFLENVPSIPVEDDESQNNNLLPSDEGLRIDRMTQKTPFECSQSEVMFLSLDKKPESKRNEEACNMPSSSCEESWFPKYIVPSQDLRPYKVNIDPSSEAPGHSCRSRPVESSCSSKFSWDEYEQYKKE
suppression of NFAT reporter activity (NFAT [1]): did not show suppression of NFAT

B2: Interleukin-1 Receptor Associated Kinase-1 (protein)
chain: MAGGPGPGEPVVPGAQHFLYEVPPWVMCRFYKVMDALEPADWCQFAALIVRDQTELRLCERSEQRTASVLWPWINRNARVADLVHILTHLQLLRARDIITAWHPPAPVVPPSTAAPRPSSISAGSEAGDWSPRKLQSSASTFLSPAFPGSQTHSESELLQVPLPVSLGPPLPSSAPSSTKSSPESPVSGLQRAHPSPFCWPFCEISQGTCNFSEELRIGEGGFGCVYRAVMRNTTYAVKRLKEEADLEWTMVKQSFLTEVEQLSRFRHPNIVDFAGYCAESGLYCLVYGFLPNGSLEDQLHLQTQACSPLSWPQRLDILLGTARAIQFLHQDSPSLIHGDIKSSNVLLDERLMPKLGDFGLARFSRFAGAKASQSSTVARTSTVRGTLAYLPEEYIKTGRLAVDTDTFSFGVVILETLAGQRAVRTQGAKTKYLKDLIEDEAEEAGVTLKSTQPTLWVGVATDAWAAPIAAQIYKKHLDSRPGPCPPQLGLALAQLACCCMHRRAKKRPPMTQVYKRLEGLQAGPPWELEVAGHGSPSPQENSYMSTTGSAQSGDEPWQPLVVTTRAPAQAAQQLQRSPNQPVESDESVPGLSATLHSWHLTPGSHPSPASFREASCTQGGTTRESSVRSSPGFQPTTMEGSPTGSSSLLSSEPPQIIINPARQKMVQKLALYEEGVLDSLQLLSSGFFPGLDLEPEKSQGPEESDEFQS
suppression of NFAT reporter activity (NFAT [1]): suppression of NFAT by IRAK-1 could be seen
reduction of NFAT reporter luciferase activity compared with the control transfection (NFAT [1]; co-transfection with NFAT-luciferase reporter plasmid, Hela cells, control adjusted to 100%): −80%
co-immunoprecipitation with NFAT (NFAT [2]): capable of co-immunoprecipitating with NFAT

B3: IRAK-1-ΔC: truncated version of IRAK-1 with deletion of the C terminal region (amino acids 548 to 712 are deleted) (protein, UniProt P51617 1-547, looked up, fragment)
chain: MAGGPGPGEPAAPGAQHFLYEVPPWVMCRFYKVMDALEPADWCQFAALIVRDQTELRLCERSGQRTASVLWPWINRNARVADLVHILTHLQLLRARDIITAWHPPAPLPSPGTTAPRPSSIPAPAEAEAWSPRKLPSSASTFLSPAFPGSQTHSGPELGLVPSPASLWPPPPSPAPSSTKPGPESSVSLLQGARPFPFCWPLCEISRGTHNFSEELKIGEGGFGCVYRAVMRNTVYAVKRLKENADLEWTAVKQSFLTEVEQLSRFRHPNIVDFAGYCAQNGFYCLVYGFLPNGSLEDRLHCQTQACPPLSWPQRLDILLGTARAIQFLHQDSPSLIHGDIKSSNVLLDERLTPKLGDFGLARFSRFAGSSPSQSSMVARTQTVRGTLAYLPEEYIKTGRLAVDTDTFSFGVVVLETLAGQRAVKTHGARTKYLKDLVEEEAEEAGVALRSTQSTLQAGLAADAWAAPIAMQIYKKHLDPRPGPCPPELGLGLGQLACCCLHRRAKRRPPMTQVYERLEKLQAVVAGVPGHSEAASCIPPSPQENSY
suppression of NFAT reporter activity (NFAT [1]): failed to suppress NFAT activity

B4: IRAK-1b: isoform of IRAK-1 that does not possess kinase activity (protein)
chain: MAGGPGPGEPAAPGAQHFLYEVPPWVMCRFYKVMDALEPADWCQFAALIVRDQTELRLCERSGQRTASVLWPWINRNARVADLVHILTHLQLLRARDIITAWHPPAPLPSPGTTAPRPSSIPAPAEAEAWSPRKLPSSASTFLSPAFPGSQTHSGPELGLVPSPASLWPPPPSPAPSSTKPGPESSVSLLQGARPFPFCWPLCEISRGTHNFSEELKIGEGGFGCVYRAVMRNTVYAVKRLKENADLEWTAVKQSFLTEVEQLSRFRHPNIVDFAGYCAQNGFYCLVYGFLPNGSLEDRLHCQTQACPPLSWPQRLDILLGTARAIQFLHQDSPSLIHGDIKSSNVLLDERLTPKLGDFGLARFSRFAGSSPSQSSMVARTQTVRGTLAYLPEEYIKTGRLAVDTDTFSFGVVVLETLAGQRAVKTHGARTKYLKDLVEEEAEEAGVALRSTQSTLQAGLAADAWAAPIAMQIYKKHLDPRPGPCPPELGLGLGQLACCCLHRRAKRRPPMTQENSYVSSTGRAHSGAAPWQPLAAPSGASAQAAEQLQRGPNQPVESDESLGGLSAALRSWHLTPSCPLDPAPLREAGCPQGDTAGESSWGSGPGSRPTAVEGLALGSSASSSSEPPQIIINPARQKMVQKLALYEDGALDSLQLLSSSSLPGLGLEQDRQGPEESDEFQS
suppression of NFAT reporter activity (NFAT [1]): cannot fulfill the inhibitory function on NFAT

B5: D340N: mutated IRAK-1 molecule, mutation present in human patients with cardiovascular diseases (protein, UniProt P51617 1-712, looked up, variant D340N)
Interleukin-1 …: MAGGPGPGEPAAPGAQHFLYEVPPWVMCRFYKVMDALEPADWCQFAALIVRDQTELRLCERSGQRTASVLWPWINRNARVADLVHILTHLQLLRARDIITAWHPPAPLPSPGTTAPRPSSIPAPAEAEAWSPRKLPSSASTFLSPAFPGSQTHSGPELGLVPSPASLWPPPPSPAPSSTKPGPESSVSLLQGARPFPFCWPLCEISRGTHNFSEELKIGEGGFGCVYRAVMRNTVYAVKRLKENADLEWTAVKQSFLTEVEQLSRFRHPNIVDFAGYCAQNGFYCLVYGFLPNGSLEDRLHCQTQACPPLSWPQRLDILLGTARAIQFLHQDSPSLIHGNIKSSNVLLDERLTPKLGDFGLARFSRFAGSSPSQSSMVARTQTVRGTLAYLPEEYIKTGRLAVDTDTFSFGVVVLETLAGQRAVKTHGARTKYLKDLVEEEAEEAGVALRSTQSTLQAGLAADAWAAPIAMQIYKKHLDPRPGPCPPELGLGLGQLACCCLHRRAKRRPPMTQVYERLEKLQAVVAGVPGHSEAASCIPPSPQENSYVSSTGRAHSGAAPWQPLAAPSGASAQAAEQLQRGPNQPVESDESLGGLSAALRSWHLTPSCPLDPAPLREAGCPQGDTAGESSWGSGPGSRPTAVEGLALGSSASSSSEPPQIIINPARQKMVQKLALYEDGALDSLQLLSSSSLPGLGLEQDRQGPEESDEFQS
suppression of NFAT reporter activity (NFAT [1]): failed to suppress NFAT activity

B6: T113I: mutated IRAK-1 molecule, mutation present in human patients with cardiovascular diseases (protein, UniProt P51617 1-712, looked up, variant T113I)
Interleukin-1 …: MAGGPGPGEPAAPGAQHFLYEVPPWVMCRFYKVMDALEPADWCQFAALIVRDQTELRLCERSGQRTASVLWPWINRNARVADLVHILTHLQLLRARDIITAWHPPAPLPSPGITAPRPSSIPAPAEAEAWSPRKLPSSASTFLSPAFPGSQTHSGPELGLVPSPASLWPPPPSPAPSSTKPGPESSVSLLQGARPFPFCWPLCEISRGTHNFSEELKIGEGGFGCVYRAVMRNTVYAVKRLKENADLEWTAVKQSFLTEVEQLSRFRHPNIVDFAGYCAQNGFYCLVYGFLPNGSLEDRLHCQTQACPPLSWPQRLDILLGTARAIQFLHQDSPSLIHGDIKSSNVLLDERLTPKLGDFGLARFSRFAGSSPSQSSMVARTQTVRGTLAYLPEEYIKTGRLAVDTDTFSFGVVVLETLAGQRAVKTHGARTKYLKDLVEEEAEEAGVALRSTQSTLQAGLAADAWAAPIAMQIYKKHLDPRPGPCPPELGLGLGQLACCCLHRRAKRRPPMTQVYERLEKLQAVVAGVPGHSEAASCIPPSPQENSYVSSTGRAHSGAAPWQPLAAPSGASAQAAEQLQRGPNQPVESDESLGGLSAALRSWHLTPSCPLDPAPLREAGCPQGDTAGESSWGSGPGSRPTAVEGLALGSSASSSSEPPQIIINPARQKMVQKLALYEDGALDSLQLLSSSSLPGLGLEQDRQGPEESDEFQS
suppression of NFAT reporter activity (NFAT [1]): failed to suppress NFAT activity

B7: C203S: mutated IRAK-1 molecule, mutation present in human patients with cardiovascular diseases (protein, UniProt P51617 1-712, looked up, variant C203S)
Interleukin-1 …: MAGGPGPGEPAAPGAQHFLYEVPPWVMCRFYKVMDALEPADWCQFAALIVRDQTELRLCERSGQRTASVLWPWINRNARVADLVHILTHLQLLRARDIITAWHPPAPLPSPGTTAPRPSSIPAPAEAEAWSPRKLPSSASTFLSPAFPGSQTHSGPELGLVPSPASLWPPPPSPAPSSTKPGPESSVSLLQGARPFPFCWPLSEISRGTHNFSEELKIGEGGFGCVYRAVMRNTVYAVKRLKENADLEWTAVKQSFLTEVEQLSRFRHPNIVDFAGYCAQNGFYCLVYGFLPNGSLEDRLHCQTQACPPLSWPQRLDILLGTARAIQFLHQDSPSLIHGDIKSSNVLLDERLTPKLGDFGLARFSRFAGSSPSQSSMVARTQTVRGTLAYLPEEYIKTGRLAVDTDTFSFGVVVLETLAGQRAVKTHGARTKYLKDLVEEEAEEAGVALRSTQSTLQAGLAADAWAAPIAMQIYKKHLDPRPGPCPPELGLGLGQLACCCLHRRAKRRPPMTQVYERLEKLQAVVAGVPGHSEAASCIPPSPQENSYVSSTGRAHSGAAPWQPLAAPSGASAQAAEQLQRGPNQPVESDESLGGLSAALRSWHLTPSCPLDPAPLREAGCPQGDTAGESSWGSGPGSRPTAVEGLALGSSASSSSEPPQIIINPARQKMVQKLALYEDGALDSLQLLSSSSLPGLGLEQDRQGPEESDEFQS
suppression of NFAT reporter activity (NFAT [1]): failed to suppress NFAT activity
